{
  "source": "paper doi:10.1101/2020.07.06.190884",
  "key": {"[1]": {"molecular_target": "His-tagged PrgU (Enterococcus faecalis (plasmid pCF10))", "assay": "GEMMA"}, "[2]": {"molecular_target": "His-tagged PrgU (Enterococcus faecalis (plasmid pCF10))", "assay": "SEC-MALS"}},
  "data": [
    {"substance": "His-tagged PrgU (natural protein)", "values": [
      {"measurement": "stoichiometry N", "setting": "[1]", "result": 2},
      {"measurement": "stoichiometry N", "setting": "[2]", "result": 2}
    ]}
  ]
}
